Values of other authors in article PMC6109845.

Biological target: HIF-1α 19-mer peptide (Homo sapiens) (UniProt Q16665)

Chain of von Hippel-Lindau E3 ubiquitin ligase (VHL) (P40337 whole entry): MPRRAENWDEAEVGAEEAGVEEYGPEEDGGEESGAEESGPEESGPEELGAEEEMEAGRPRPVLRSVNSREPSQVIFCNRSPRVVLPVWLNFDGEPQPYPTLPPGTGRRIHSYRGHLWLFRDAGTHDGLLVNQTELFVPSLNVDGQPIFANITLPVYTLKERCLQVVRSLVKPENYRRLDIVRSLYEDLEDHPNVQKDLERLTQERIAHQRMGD

- Kd: 3 nM
Substance: von Hippel-Lindau E3 ubiquitin ligase (VHL) (from UniProt P40337)
